Positions count from the first letter of the chain named.
B1: YW26 (antibody, V domains shown)
VH: EVQLVESGGGLVQPGGSLRLSCAASGFTFTDNWISWVRQAPGKGLEWVGVINPNSGSTDYADSVKGRFTISADTSKNTAYLQMNSLRAEDTAVYYCARDNFGGYFDYWGQGTLVTVSS
VL: DIQMTQSPSSLSASVGDRVTITCRASQDVSTAVAWYQQKPGKAPKLLIYSASFLYSGVPSRFSGSGSGTDFTLTISSLQPEDFATYYCQQSYTTPPTFGQGTKVEIK
notes: Only the six HVRs are tied to the clone; also called clone 152.26; anti-DLL4 antibody
B2: YW26.14 (antibody, V domains shown)
VH: B1 VH with T28S, T30R
VL: B1 VL with Y92V, T93N, T94G, P96A
notes: also called clone 152.26.14
B3: YW26.34 (antibody, V domains shown)
VH: B1 VH with V50L, N54T, D59I
VL: B1 VL with T94G, P96S
notes: Only the six HVRs are tied to the clone; also called clone 152.26.34
B4: YW26.6 (antibody, V domains shown)
VH: B1 VH with V50L, N54Q, T58S
VL: B1 VL with T94G, P95Q, P96S
notes: Only the six HVRs are tied to the clone; also called clone 152.26.6

Biological target: T1, C-terminal His-tagged human DLL4 (amino acid 1-404) (human, UniProt Q9NR61 26-404)
T1 construct: range 26-404; the text calls it human DLL4-His; also called DLL4-His; human DLL4-His; not shown: C-terminal His tag
Experiment: SPR BIAcore-3000, antibody coupled to CM5 chip, DLL4-His injected, 25 C
Method: (§1) To determine the binding affinity of the anti-DLL4 Mabs, surface plasmon resonance (SRP) measurement with a BIAcore™-3000 was used (BIAcore, Inc., Piscataway, N.J.). Briefly, carboxymethylated dextran biosensor chips (CM5, BIAcore Inc.) were activated with N-ethyl-N′-(3-dimethylaminopropyl)-carbodiimide hydrochloride (EDC) and N-hydroxysuccinimide (NHS) according to the supplier's instructions. […] Next, IM ethanolamine was injected to block unreacted groups. […] Association rates (kon) and dissociation rates (koff) were calculated using a simple one-to-one Langmuir binding model (BIAcore Evaluation Software version 3.2). The equilibrium dissociation constant (Kd) was calculated as the ratio koff/kon.

T1 sequence (Q9NR61 26-404 limits assumed): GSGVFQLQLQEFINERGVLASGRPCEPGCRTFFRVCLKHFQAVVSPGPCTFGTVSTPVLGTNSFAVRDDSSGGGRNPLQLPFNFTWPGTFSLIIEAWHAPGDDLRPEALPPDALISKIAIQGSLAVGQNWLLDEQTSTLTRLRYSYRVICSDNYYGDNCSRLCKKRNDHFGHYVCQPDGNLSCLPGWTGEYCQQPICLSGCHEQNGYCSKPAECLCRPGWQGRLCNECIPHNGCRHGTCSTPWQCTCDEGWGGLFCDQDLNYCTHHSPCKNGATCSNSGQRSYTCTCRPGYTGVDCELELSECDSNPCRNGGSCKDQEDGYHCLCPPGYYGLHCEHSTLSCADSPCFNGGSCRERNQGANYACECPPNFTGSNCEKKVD

| Kd | koff | kon | Binder |
| --- | --- | --- | --- |
| 25 nM | 0.00074 s⁻¹ | 30000 M⁻¹ s⁻¹ | B1 |
| 0.37 nM | 6.6e-05 s⁻¹ | 180000 M⁻¹ s⁻¹ | B2 |
| 0.35 nM | 6.7e-05 s⁻¹ | 190000 M⁻¹ s⁻¹ | B3 |
| 0.25 nM | – | – | B4 |

Biological target: T2, His-tagged murine DLL4 (murine, UniProt Q9JI71 27-405, limits assumed)
T2 construct: domain: ECD5.5; also called murine DLL4-His; murine Delta4 (ECD5.5); not shown: His tag
Experiment: as above
Method: as §1

T2 sequence (Q9JI71 27-405 limits assumed): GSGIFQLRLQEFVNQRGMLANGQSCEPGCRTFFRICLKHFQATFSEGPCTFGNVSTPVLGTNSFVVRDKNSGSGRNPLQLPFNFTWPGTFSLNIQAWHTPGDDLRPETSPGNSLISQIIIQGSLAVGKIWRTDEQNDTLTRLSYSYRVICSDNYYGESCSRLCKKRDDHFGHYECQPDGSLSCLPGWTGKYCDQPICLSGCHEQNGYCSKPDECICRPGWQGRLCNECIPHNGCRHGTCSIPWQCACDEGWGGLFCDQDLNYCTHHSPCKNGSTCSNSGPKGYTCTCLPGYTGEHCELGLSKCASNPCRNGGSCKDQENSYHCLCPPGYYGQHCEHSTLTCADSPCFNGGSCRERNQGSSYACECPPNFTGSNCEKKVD

| Kd | koff | kon | Binder |
| --- | --- | --- | --- |
| 28 nM | 0.0016 s⁻¹ | 57000 M⁻¹ s⁻¹ | B1 |
| 0.22 nM | 7.3e-05 s⁻¹ | 330000 M⁻¹ s⁻¹ | B2 |
| 0.18 nM | 6.5e-05 s⁻¹ | 360000 M⁻¹ s⁻¹ | B3 |

From US20080175847A1 (Genentech, published 2008)
